This data set has as its system Bacillus subtilis. The experiment in a line: cleaved RNA product abundance (RNA/gDNA barcode ratio) relative to median wild-type variant (ratio to wild type); higher = more accumulation of the downstream cleavage product. Put shortly:
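Cleaved product abundance is expressed as the RNA:gDNA barcode ratio per construct, scaled to the median construct carrying the unmutated site. The constructs were barcoded, mutagenized RNase Y cleavage-site windows in truncated aprE or tetM reporter mRNAs integrated into the B. subtilis chromosome. Cultures grew in LB at 37°C from OD600 0.0003 to 0.3 before cleaved RNA was gel-selected and barcode-sequenced.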

Where [1] appears, read: experiment (reporter, strain, medium): exp 8a: truncated aprE reporter, strain BJT201 with 2% xylose (RNase J1 expressed), cleavage site: glnRA (positions -5 to +31 mutated).
[2] abbreviates: experiment (reporter, strain, medium): exp 4a: truncated aprE reporter, strain BJT201 with 2% xylose (RNase J1 expressed), cleavage site: cggR-gapA (positions -7 to +36 mutated).
Setting [3] is: experiment (reporter, strain, medium): exp 2b: truncated aprE reporter, strain BJT200, cleavage site: cggR-gapA (positions -7 to +36 mutated).

“CGACATGTCCCGCTTCTTTCATTAATCCCTTAGCAACTGTTTTGCTATATACATTTACTTTTTAAGAGGAGGAAT”: under setting [1], the “cleaved RNA product abundance” value was 0.19.

For “CGACATGTCCCGCTTCTTTCATTACTCCGTTAGCAACTGTTTTGCTATATACATTCACCTTTTAAGAGGAGGAAT”, the “cleaved RNA product abundance” value under setting [1] worked out at 0.658.

“ACAGACGAAGGAGCCGCAAAGAAGTTATTAAGCCATGAATAATCCCTCAATATAAATATCTCTCACTTATTTAAA”: the “cleaved RNA product abundance” value runs as follows: under setting [2], 0.106; (experiment (reporter, strain, medium): exp 6: tetM reporter, strain 168, cleavage site: cggR-gapA (positions -7 to +36 mutated)) 0.058.

With “ACAGACGAAGGAGCCGCAAAGAAGTTATTAAGGGATGAAAAATCCCTCAATATAAATGTCTCTCACTTATTTAAA”, the “cleaved RNA product abundance” value was 0.304 under setting [3] and 0.622 under setting [2].

As for “ACAGACGAAGGAGCCGCAAAGACGTCATTAAGGGATGAATAATCCCTCAATATAAATATCTCTCACTTATTTAAA”, the “cleaved RNA product abundance” value under setting [2] stood at 0.449.

Consider “CGACATGTCCCGCTTCTTTCATTATTCCGTTAGCAACTGTTTTGCTATATACATTTACGTTTTAAGAGGAGGAAT”, for which the “cleaved RNA product abundance” value under setting [1] stood at 2.39.

Consider “ACAGACGAAGGAGCCGCAAAGAAGTTATGAAGGGATGCATAATCCCTCAATATAAATATCTCTCACTTATTTAAA”, for which the “cleaved RNA product abundance” value under setting [2] is 0.542.

With “ACAGACGAAGGAGCCGCAAAGAAGTTATTAAGGAATGAATAATCTCTCAATATAAATATCTCTCACTTATTTAAA”, the “cleaved RNA product abundance” value under setting [3] worked out at 0.0991 and the “cleaved RNA product abundance” value under setting [2] is 0.155.

On to “CGACATGTCCCGCTTCTTTCATTAATCCGTGAGCAACTGTTTTGCTATACACATTTACCTTTTAAGAGGAGGAAT”, for which the “cleaved RNA product abundance” value under setting [1] is 0.0879.

For “CGACATGTCCCGCTTCTTTCATTAATCCGTTAGCAACTGTTTTGCAATAAACATTTACCTTTTAAGAGGAGGAAT”, under setting [1], the “cleaved RNA product abundance” value was 0.232.

Turning to “ACAGACGAAGGAGCCGCAAAGCAGTTATTAAGGGATGAATAATCCTTCAATATAAATATCTCTCACTTATTTAAA”, under setting [2], the “cleaved RNA product abundance” value was 0.526.

Turning to “CGACATGTCCCGCTTCTTTCATTAATCCGTTACCAACTGTTTTGCTATACACATTTACCTTTTAAGAGGAGGAAT”, the “cleaved RNA product abundance” value under setting [1] amounted to 0.212.

For “ACAGACGAAGGAGCCGCTAAGAAGATATTAAGGGATGAATAATCCCTCAATATAAATATCTCTCACTTATTTAAA”, the “cleaved RNA product abundance” value under setting [3] is 0.625.

In the case of “ACAGACGAAGGAGCCGCAAATAAATTATTAAGGGAAGAATAATCCCTCAATATAAATATCTCTCACTTATTTAAA”, under setting [2], the “cleaved RNA product abundance” value amounted to 0.369.

Consider “CGACATGTCCCGCTTCTTTCATTAATCCGTTAGCAACTGTTTTGCCAGATACATTTACCTTTTAAGAGGAGGAAT”, for which the “cleaved RNA product abundance” value under setting [1] stood at 0.286.

“ACAGACGAAGGAGCCGCAAAGAAGTTATTAAGGGATGAATAATCCCTTAATATATATATCTCTCACTTATTTAAA”: under setting [2], the “cleaved RNA product abundance” value was determined as 0.895.

As for “ACAGACGAAGGAGCCGCAAAGAATTTATTAAGGGTTGAATAATCCCTCAATATAAATATCTCTCACTTATTTAAA”, under setting [2], the “cleaved RNA product abundance” value is 0.388.

For “ACAGACGAAGGAGCCGCAAAGAAGTTATTAAGGCATGAATAATCACTCAATATAAATATCTCTCACTTATTTAAA”, the “cleaved RNA product abundance” value reads like this: under setting [3], 0.118; under setting [2], 0.0873.

Consider “CGACATGTCCCGCTTCTTTCATTAATCCGTTATCAACTGTTTTGCTATACACATTTACCTTTTAAGAGGAGGAAT”, for which, under setting [1], the “cleaved RNA product abundance” value turned out to be 0.27.

With “ACAGACGAAGGAGCCGCAGAGAAGTTATTAAGGGATGAATAATCCCACAATATAAATATCTCTCACTTATTTAAA”, the “cleaved RNA product abundance” value under setting [2] worked out at 0.235.

For the sequence “ACAGACGAAGGAGCCGCAAAGAACCTATTAAGGGATGAATAATCCCTCAATATAAATATCTCTCACTTATTTAAA”, the “cleaved RNA product abundance” value under setting [3] was 0.18 and the “cleaved RNA product abundance” value under setting [2] was 0.309.

In the case of “CGACATGTCCCGCTTCTTTCATTATTCCGTTAGCAACTGTTTTGCGATATACATTTACCTTTTAAGAGGAGGAAT”, under setting [1], the “cleaved RNA product abundance” value was 0.52.

Consider “ACAGACGAAGGAGCCGCAAAGAAGTTATTAAAGGACGAATAATCCCTCAATATAAATATCTCTCACTTATTTAAA”, for which the “cleaved RNA product abundance” value under setting [2] amounted to 0.103.

As to “ACAGACGAAGGAGCCGCAAAGAAGTTATTAAGGGATGTAAAATCCCTCAATATAAATATCTCTCACTTATTTAAA”, the “cleaved RNA product abundance” value under setting [2] came to 1.04.

Regarding “CGACATGTCCCGCTTCTTTCATTAATCCGTTAGCAACTTTTTTACTATATACATTTACCTTTTAAGAGGAGGAAT”, the “cleaved RNA product abundance” value under setting [1] was 0.744.

For “ACAGACGAAGGAGCCGCAAAGAAGTTATTAATGGATGAATAATACCTCAATATAAATATCTCTCACTTATTTAAA”, the “cleaved RNA product abundance” value runs as follows: under setting [3], 0.0824; under setting [2], 0.126.

Regarding “ACAGACGAAGGAGCCGCAAAGAAGTTATTAAAGGATGAATATTCCCTCAATATAAATATCTCTCACTTATTTAAA”, the “cleaved RNA product abundance” value under setting [2] came to 0.183.

On to “ACAGACGAAGGAGCCGCAAAGAAGTTATTAATGGATGCATAATCCCTCAATATAAATATCTCTCACTTATTTAAA”, for which the “cleaved RNA product abundance” value came out at 0.133 under setting [3] and 0.169 under setting [2].

With “ACAGACGAAGGAGCCGCAAAGAAGTTATTAACGGATGAATAATTCCTCAATATAAATATCTCTCACTTATTTAAA”, the “cleaved RNA product abundance” value under setting [2] was found to be 0.152.

As for “ACAGACGAAGGAGCCGCAAAGAAGTTATTAAGGGATGAATAATCCCTCATTTTAAATATCTCTCACTTATTTAAA”, under setting [2], the “cleaved RNA product abundance” value came to 0.191.

As for “CGACATGTCCCGCTTCTTTCATTAACCCGTTAGCAACTTTTTTGCTATATACATTTACCTTTTAAGAGGAGGAAT”, the “cleaved RNA product abundance” value under setting [1] was 0.909.

On to “CGACATGTCCCGCTTCTTTCATTAATACATTAACAACTGTTTTGCTATATACATTTACCTTTTAAGAGGAGGAAT”, for which, under setting [1], the “cleaved RNA product abundance” value is 0.235.

Turning to “ACAGACGAAGGAGCCGCAAAGAAGTTATTAAGCGATGAATAATCCCCCAATATAAATATCTCTCACTTATTTAAA”, the “cleaved RNA product abundance” value by setting is: under setting [3], 0.0922; under setting [2], 0.13.

Turning to “CGACATGTCCCGCTTCTTTCATTAATCCGTTATCAACTGTTTTGCTATATCCATTTACCTTTTAAGAGGAGGAAT”, under setting [1], the “cleaved RNA product abundance” value came to 0.136.

Take “ACAGACGAAGGAGCCGCAAAGAAGTTATTAAGTGATGAATAATCCCTCTATATAAATATCTCTCACTTATTTAAA”: the “cleaved RNA product abundance” value under setting [3] stood at 0.109 and the “cleaved RNA product abundance” value under setting [2] came to 0.128.

Regarding “ACAGACGAAGGAGCCGCAAAGAAGTTATTAAGTGAAGAATAATCCCTCAATATAAATATCTCTCACTTATTTAAA”, under setting [2], the “cleaved RNA product abundance” value was 0.0841.

As for “ACAGACGAAGGAGCCGCAAAGAAGTTAATAAGGGATGAATAATCCCTCTATATAAATATCTCTCACTTATTTAAA”, under setting [2], the “cleaved RNA product abundance” value came out at 0.39.

In the case of “ACAGACGAAGGAGCCGCAAAGAATTTATTAAGGGATGACTAATCCCTCAATATAAATATCTCTCACTTATTTAAA”, under setting [3], the “cleaved RNA product abundance” value came to 0.3.

“ACAGACGAAGGAGCCGCAAATAAGTTATTAAGGGATGAATAATCTCTCAATATAAATATCTCTCACTTATTTAAA”: the “cleaved RNA product abundance” value by setting is: under setting [3], 0.613; under setting [2], 0.758.

As to “ACAGACGAAGGAGCCGCAAAGAATTTACTAAGGGATGAATAATCCCTCAATATAAATATCTCTCACTTATTTAAA”, the “cleaved RNA product abundance” value was determined as 0.251 under setting [3] and 0.31 under setting [2].

In the case of “CGACATGTCCCGCTTCTTTCATTACTCCGTTTACAACTGTTTTGCTATATACATTTACCTTTTAAGAGGAGGAAT”, under setting [1], the “cleaved RNA product abundance” value amounted to 0.368.

“ACAGACGAAGGAGCCGCAAAGAAGTTTTTAAGGGATAAATAATCCCTCAATATAAATATCTCTCACTTATTTAAA”: the “cleaved RNA product abundance” value under setting [2] turned out to be 0.214.

On to “ACAGACGAAGGAGCCGCAAAGAAGTTATTAAGGGACGAATAATCCCTCAGTATAAATATCTCTCACTTATTTAAA”, for which the “cleaved RNA product abundance” value under setting [2] was found to be 0.415.

Turning to “CGACATGTCCCGCTTCTTTCATTAATACGTTAGCAACTGTTTTGCTATATACATTTACCTTTTAAGAGGAGGAAT”, under setting [1], the “cleaved RNA product abundance” value is 0.97.

For the sequence “ACAGACGAAGGAGCCGCAAAGAAGTTATTAAGGGATGAATAATCCCTCAATATAAATTATCTCTCACTTATTTAA”, the “cleaved RNA product abundance” value under setting [2] was found to be 0.975.

In the case of “ACAGACGAAGGAGCCGCAAAGAAGTTCTTAATGGATGAATAATCCCTCAATATAAATATCTCTCACTTATTTAAA”, the “cleaved RNA product abundance” value under setting [2] was 0.119.

As for “ACAGACGAAGGAGCCGCAAAGAAATTATTAAGGGATGAATAAGCCCTCAATATAAATATCTCTCACTTATTTAAA”, the “cleaved RNA product abundance” value under setting [2] is 0.416.

Consider “CGACATGTCCCGCTTCTTTCATTAATCCGTTAGCAACTGTTTTGCTAAATACATTTAACTTTTAAGAGGAGGAAT”, for which the “cleaved RNA product abundance” value under setting [1] came to 0.445.

As for “ACAGACGAAGGAGCCGCATAGAAGTTACTAAGGGATGAATAATCCCTCAATATAAATATCTCTCACTTATTTAAA”, the “cleaved RNA product abundance” value runs as follows: under setting [3], 0.24; under setting [2], 0.221.

For “CGACATGTCCCGCTTCTTTCATTAATCCGTTAGCAACTATTTTGCTATATACATTTAGCTTTTAAGAGGAGGAAT”, the “cleaved RNA product abundance” value under setting [1] was found to be 1.16.

Regarding “ACAGACGAAGGAGCCGCAAAGAAGTTATTAAGGGATGAATAATCCCTACATATAAATATCTCTCACTTATTTAAA”, the “cleaved RNA product abundance” value under setting [2] is 0.203.

For the sequence “ACAGACGAAGGAGCCGCAAAGAACTTATTAAGGGATGAATAATCCCCCAATATAAATATCTCTCACTTATTTAAA”, under setting [2], the “cleaved RNA product abundance” value came out at 0.25.

As for “ACAGACGAAGGAGCCGCAAAGAAGTTATCAACGGATGAATAATCCCTCAATATAAATATCTCTCACTTATTTAAA”, under setting [2], the “cleaved RNA product abundance” value was determined as 0.15.

For “ACAGACGAAGGAGCCGCAAAGAAGTTATTAAGGGATGACTAATCCCTCAAAATAAATATCTCTCACTTATTTAAA”, under setting [3], the “cleaved RNA product abundance” value worked out at 0.192.

Consider “ACAGACGAAGGAGCCGCAAAGAAGATATTAAGGGATGAATAATCGCTCAATATAAATATCTCTCACTTATTTAAA”, for which, under setting [2], the “cleaved RNA product abundance” value came out at 0.228.

Source of the values: the supplement of paper PMC11780869.
